Results taken from patent US20210079109A1 (Regeneron, published 2021).

T1: human CD63 (human, UniProt P08962 2-238)
T1 construct: stably transfected in NIH3T3/hCD63; The cell line is named under assay; also called hCD63
T1 sequence: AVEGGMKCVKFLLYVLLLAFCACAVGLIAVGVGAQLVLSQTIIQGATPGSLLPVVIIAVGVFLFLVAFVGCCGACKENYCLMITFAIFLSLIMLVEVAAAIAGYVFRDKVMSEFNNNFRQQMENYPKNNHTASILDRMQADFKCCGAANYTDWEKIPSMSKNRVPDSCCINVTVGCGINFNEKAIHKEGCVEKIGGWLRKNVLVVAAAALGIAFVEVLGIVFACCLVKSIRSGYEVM

B1: H4H12450N (antibody, V domains shown)
VH: QVQLQESGPKVVKPSETLSLTCTVSGGSISSYYWNWIRQSPGKGLEWIGYTKRGYTDYNPSLRSRVTISEDTSKNQFSLRISSVTAADTAVYYCAQMGWGSHAFDMWGQGTMVAVSS
VL: not shown
B2: H4H11998P2 (antibody, V domains shown)
VH: QVQLVESGGGLVKPGGSLRLSCAASGFSFSDYYITWIRQAPGKGLEWVSYINTGGYTMYYADSVKGRFTISRDNAKNSLYLQMNNLRAEDTAVYYCTRDRRYNFGLDYWGQGTLVTVSS
VL: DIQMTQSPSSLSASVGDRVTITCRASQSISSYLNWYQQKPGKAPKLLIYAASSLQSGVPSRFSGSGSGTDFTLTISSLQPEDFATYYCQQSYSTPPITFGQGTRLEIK
B3: H1M12390N (antibody, V domains shown)
VH: QVHLVESGGGLVKPGGSLRLSCAASGFIFSDYYMSWIRQAPGKGLEWVSYIRGSGYNADSVQGRFTISRDNAKNSLFLQMNSLRAEDTAVYYCARGYSFGYGFFDYWGQGTLVTVSS
VL: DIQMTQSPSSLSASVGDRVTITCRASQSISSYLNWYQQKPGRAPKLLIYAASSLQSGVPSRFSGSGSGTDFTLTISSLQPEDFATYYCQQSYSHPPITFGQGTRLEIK

How the values were obtained:
human CD63 [1] = molecular target: T1, human CD63; assay: imaging of stained T47D cells, 10 ug/mL antibody
Method: To stain, quadruplicate plates of cells were incubated with 10 μg/mL of anti-CD63 antibodies that was diluted in 2% FBS in PBS, without Calcium and Magnesium (Irving, Cat #9240) (staining buffer) for 30 minutes at 4° C. […] Two plates were immediately fixed and stained with 4% paraformaldehyde (PFA; ThermoFisher, Cat #28908)+5 uM DRAQ5 (ThermoFisher, Cat #62251) in PBS for 20 minutes (non-internalization plates). The remaining two plates were incubated with growth media at 37° C. for 2 hours followed by fixation and staining for 20 minutes using a solution of 4% PFA+5 μM DRAQ5 diluted in PBS (internalization plates). After fixation, all plates were washed once with PBS. One non-internalization plate and one internalization plate were incubated with an anti-Alexa Fluor 488 antibody (Regeneron) at 50 μg/mL in PBS overnight at 4° C. to quench surface Alexa Fluor 488 fluorescence. The remaining plates were incubated with PBS only. Confocal images were acquired on the Opera Phenix (Perkin Elmer) at 40× magnification. Harmony analysis software (Perkin Elmer) was utilized to identify DRAQ5-labeled cells and the total Alexa-Fluor 488 relative fluorescent units (RFU) per cell was determined. The total binding at 4° C. (RFU values of 4° C. unquenched wells), total binding at 37° C. (RFU values of 37° C. unquenched wells), the total internalized RFU, and the % Internalization were determined for each antibody as shown in Table 1. For all calculations, background fluorescence from 2nd Ab only control wells were subtracted from every well. Total internalized RFU was calculated as follows: Total RFU of 37° C. unquenched samples−Surface RFU at 37° C. Surface RFU is defined as unquenched RFU at 37° C.−quenched RFU at 37° C.)/QE. QE (quenching efficiency) is defined as: 1−(Total RFU of 4° C. quenched sample/Total RFU of 4° C. unquenched sample). The % Internalization was determined from the following formula: (Total internalized RFU at 37° C./Total RFU at 37° C.)*100.

human CD63 [2] = molecular target: T1, human CD63; assay: cell-based or functional assay
human CD63 [3] = molecular target: T1, human CD63; assay: ECL, NIH3T3/hCD63 cells; NIH3T3/hCD63 cells (engineered, CD63 overexpressed): binds
Method: (§1) LNCAP cells were determined to have a lower human CD63 copy number than U87MG cells. Non-transfected NIH3T3 cells, which have no detectable expression of human CD63 by fluorescence activated cell sorting (FACS), were included as a negative control.
(§2) Briefly, cell lines were rinsed once in PBS buffer without Ca²⁺/Mg²⁺ and incubated for 10 minutes at 37° C. with Enzyme Free Cell Dissociation Solution (Millipore, Cat #S-004-C) to detach the cells. Cells were then washed once with PBS with Ca²⁺/Mg²⁺ and counted with a Cellometer™ Auto T4 cell counter (Nexcelom Bioscience, LLC). Approximately 2.0×10⁴ NIH3T3/hCD63, LNCAP, U87MG or NIH3T3 cells were seeded separately onto 96-well carbon electrode plates […]) and were then incubated for one hour at 37° C. Nonspecific binding sites were blocked with 2% BSA (w/v) in PBS with Ca²⁺/Mg²⁺ for one hour at room temperature (RT). […] Plates were washed and then incubated with Read Buffer (MSD, Cat #R92TD-2) according to the manufacturer's instructions. Luminescent signals were measured using a SECTOR Imager (MSD).

[4] = molecular target: T2, recombinant human CD63 extracellular loop 2 expressed with a C-terminal Myc-Myc-hexahistidine (human); assay: SPR Biacore, mAb captured, 25C
T2 construct: also called hCD63 EC loop 2-MMH; human CD63 EC loop 2-MMH
T2 sequence (chain, as listed by the source limits assumed): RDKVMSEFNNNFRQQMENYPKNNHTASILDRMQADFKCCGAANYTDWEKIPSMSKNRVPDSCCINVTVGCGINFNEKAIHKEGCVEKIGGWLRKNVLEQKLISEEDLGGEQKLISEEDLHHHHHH
Outline: (§3)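 Anti-CD63 mAbs captured on anti-mouse Fc or anti-human Fab surfaces; CD63 EC2 reagents flowed in HBS-ET, pH 7.4, at 25° C or 37° C. ka and kd from 1:1 binding model with mass transport limitation; KD and t½ calculated from kinetic rates.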

[5] = molecular target: T3, recombinant human CD63 extracellular loop 2 expressed with a C-terminal human Fc tag (human); assay: SPR Biacore, mAb captured, 25C
T3 construct: also called hCD63 EC loop 2-hFc; human CD63 EC loop 2-Fc
T3 sequence (chain, as listed by the source limits assumed): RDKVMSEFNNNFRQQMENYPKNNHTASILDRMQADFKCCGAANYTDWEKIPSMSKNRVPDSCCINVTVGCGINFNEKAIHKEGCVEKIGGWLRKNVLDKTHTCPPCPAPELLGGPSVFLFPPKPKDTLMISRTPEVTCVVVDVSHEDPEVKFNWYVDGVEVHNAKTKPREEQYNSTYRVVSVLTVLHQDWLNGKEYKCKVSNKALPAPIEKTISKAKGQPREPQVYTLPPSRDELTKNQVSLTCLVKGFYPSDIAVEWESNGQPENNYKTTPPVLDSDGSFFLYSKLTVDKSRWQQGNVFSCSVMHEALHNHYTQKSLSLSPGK
Outline: as §3

human CD63 [6] = molecular target: T1, human CD63; assay: ECL, U87MG cells; U87MG cells (endogenous CD63), ratio at 3.7 nM Ab: binds, EC50 inconclusive
Method: as §1, §2

human CD63 [7] = molecular target: T1, human CD63; assay: ECL, NIH3T3/hCD63 cells; NIH3T3/hCD63 cells, ratio at 3.7 nM Ab: binds
Method: as §1, §2

human CD63 [8] = molecular target: T1, human CD63; assay: ECL, LNCAP cells; LNCAP cells (lower CD63 copy number), ratio at 3.7 nM Ab: non-binder
Method: as §1, §2

[9] = molecular target: T2, recombinant human CD63 extracellular …; assay: SPR Biacore, mAb captured, 37C
Outline: as §3

[10] = molecular target: T3, recombinant human CD63 extracellular …; assay: SPR Biacore, mAb captured, 37C
Outline: as §3

human CD63 [11] = molecular target: T1, human CD63; assay: ECL, NIH3T3/hCD63 cells
Outline: (§4)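 Detached cells (~2.0×10⁴/well: NIH3T3/hCD63, LNCAP, U87MG, or parental NIH3T3 as negative control) were plated on carbon-electrode plates and blocked with 2% BSA. Anti-CD63 or isotype antibodies (1.7 pM–100 nM, in duplicate) were bound 1 h at RT, then washed. Signal read as electrochemiluminescence.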

human CD63 [12] = molecular target: T1, human CD63; assay: ECL, U87MG cells
Outline: as §4

human CD63 [13] = molecular target: T1, human CD63; assay: ECL, LNCAP cells
Outline: as §4

| 100 nM Ag Bound (RU) [4] [RU] | Kd [4] [nM] | koff [4] [s⁻¹] | kon [4] [M⁻¹ s⁻¹] | t1/2 [4] [min] | 100 nM Ag Bound (RU) [5] [RU] | Kd [5] [nM] | koff [5] [s⁻¹] | kon [5] [M⁻¹ s⁻¹] | t1/2 [5] [min] | 100 nM Ag Bound (RU) [9] [RU] | Kd [9] [nM] | koff [9] [s⁻¹] | kon [9] [M⁻¹ s⁻¹] | t1/2 [9] [min] | 100 nM Ag Bound (RU) [10] [RU] | Kd [10] [nM] | koff [10] [s⁻¹] | kon [10] [M⁻¹ s⁻¹] | t1/2 [10] [min] | other results | Binder |
| --- | --- | --- | --- | --- | --- | --- | --- | --- | --- | --- | --- | --- | --- | --- | --- | --- | --- | --- | --- | --- | --- |
|  |  |  |  |  |  |  |  |  |  |  |  |  |  |  |  |  |  |  |  | Total RFU at 4C (human CD63 [1]): 2.1e+06 RFU; Total RFU at 37C (2 h) (human CD63 [1]): 2.08e+06 RFU; % Internalization, T47D cells (human CD63 [2]): 68.1%; Total Internalized RFU, T47D cells (human CD63 [2]): 1.42e+06 RFU | B1 |
| 11 | 11700 | 0.0309 | 2640 | 0.4 | 136 | 2.58 | 0.000453 | 175000 | 26 | 3 | 174 | 0.0917 | 528000 | 0.1 | 111 | 6.5 | 0.00207 | 318000 | 6 | EC50 (human CD63 [3]): 7.4 nM; binding ratio at 3.7 nM vs NIH3T3 (human CD63 [6]): 5 fold; binding ratio at 3.7 nM vs NIH3T3 (human CD63 [7]): 14 fold; binding ratio at 3.7 nM vs NIH3T3 (human CD63 [8]): 1 fold | B2 |
| 54 | 10.4 | 0.00336 | 323000 | 3 | 150 | 1.89 | 0.000991 | 523000 | 12 | 38 | 35.6 | 0.0149 | 419000 | 1 | 134 | 0.546 | 0.000495 | 907000 | 23 | EC50 (human CD63 [11]): 0.48 nM; binding ratio at 3.7 nM vs NIH3T3 (human CD63 [11]): 559 fold; EC50 (human CD63 [12]): 0.36 nM; binding ratio at 3.7 nM vs NIH3T3 (human CD63 [12]): 339 fold; EC50 (human CD63 [13]): 0.3 nM; binding ratio at 3.7 nM vs NIH3T3 (human CD63 [13]): 31 fold | B3 |
